Results as given in paper PMC5130228.

Target: GST-tagged Cdc42, nucleotide-free (human) (UniProt P60953)
Test: pull-down

Sequence of UniProt P60953 (P60953 whole entry): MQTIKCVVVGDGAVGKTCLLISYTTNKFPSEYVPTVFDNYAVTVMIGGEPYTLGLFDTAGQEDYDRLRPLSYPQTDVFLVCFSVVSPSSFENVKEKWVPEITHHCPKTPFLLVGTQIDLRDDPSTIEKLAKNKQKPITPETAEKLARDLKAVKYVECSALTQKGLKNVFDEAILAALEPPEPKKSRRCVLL

## MBP-Map residues 37–203 (from UniProt P0AE18 37-203) (domain or fragment)
  stoichiometry N: 1
